Experiment [1] has as its target TatB^mNeon (E. coli TatB C-terminally tagged with mNeonGreen) (E. coli) (UniProt P69425). Put plainly: single-molecule photobleaching step counting; individual CellMask-positive IMVs adsorbed on plasma-cleaned coverslips, narrow-field epifluorescence (488 nm), 50 mM Tris-HCl, 150 mM NaCl, pH 7.5; step histograms (manual and PDD) fit to oligomer models (monomer to octamer) with Poisson distribution of complexes in IMVs and binomial fluorescence detection efficiency; copies per Tat receptor complex.

Experiment [2] addresses TatC^mNeon (E. coli TatC C-terminally tagged with mNeonGreen) (E. coli) (UniProt P69423). The experiment is described as above.

Substance “TatB^mNeon (E. coli TatB C-terminally tagged with mNeonGreen) (from UniProt P69425 1-171) (natural protein)” returned a stoichiometry N (copies per receptor complex) in experiment [1] of 4.
Regarding “TatC^mNeon (E. coli TatC C-terminally tagged with mNeonGreen) (from UniProt P69423 1-258) (natural protein)”, the stoichiometry N (copies per receptor complex) in experiment [2] turned out to be 4.

Values taken from PMC9485244.
